# Source: patent US8329429B2, “Method of enhancing recombinant protein production” (Induce Biologics Inc., priority 2007, dated 2012)
# How the values were obtained:
# [1] = tested on: CHO-BMP-2 cells; format: cell-based, Chinese hamster
# Experimental: Cell viability was assessed at each media collection using a ViCell cell viability analyzer (Beckman) following manufacturer's instructions.
# [2] = tested on: CHO-hBMP-7 cells; assay: ELISA for hBMP-7 in conditioned medium from CHO-hBMP-7 cells incubated with 9DR; format: cell-based, Chinese hamster; conditions: 24 hours, nutrient control
# Experimental: Cell lines expressing the hBMP-7 transgene were prepared as per the methods described in Example 1.
# Stable CHO cell lines expressing wild type BMP-7 cDNA were seeded into single wells of 24 well plates and cultured in the presence of increasing concentrations of the furin inhibitor 9DR. The conditioned medium was collected and aliquots were assayed for the presence of […] by ELISA. The amount of proBMP-7 present in the samples was estimated by western blot. Other aliquots of conditioned media were diluted with fresh medium and added to C2C12 cells to test for in vitro osteoinductive biological activity.
# [3] = tested on: C2C12 cells; assay: C2C12 alkaline phosphatase assay of rhBMP after PreScission digestion; format: cell-based; conditions: for ALP activity (U/μg protein) mean ± SD: n=4
# Source text: Alkaline phosphatase induction in C2C12 cells: The activity of recombinant hBMP-2 protein is quantitated based upon induction of alkaline phosphatase in in vitro cultured C2C12 cells, as has been described (see, e.g., Peel et al. J Craniofacial Surg. 2003; 14:284-291 and Hu et al. Growth Factors 2004; 22:29033).
# C2C12 cells (ATCC accession number CRL-1772, Manassas, Va.) are passaged before confluent and resuspended at 0.5×10^5 cells/ml in MEM supplemented with 15% heat-inactivated fetal bovine serum, antibiotics and 50 μg/ml ascorbic acid. One ml of cell suspension is seeded per well of a 24 well tissue culture plate (BD Falcon, Fisher Scientific Cat #08-772-1). An aliquot of test BMP-2 sample is added and the cultures maintained at 37° C. and 5% CO2. Test BMP-2 samples included conditioned media, purified recombinant hBMP-2 isolated from conditioned media by heparin affinity chromatography, and as a positive control a commercially available purified recombinant hBMP-2 (R&D Systems, Minneapolis, USA). Control cultures (cultured in media without added BMP-2 sample) are cultured for 2 to 7 days. Medium is changed every two days.
# At harvest cultures are rinsed with Tris buffered saline (20 mM Tris, 137 mM NaCl, pH 7.4) and M-Per lysis buffer (Pierce Biotechnology Inc., Rockford, Ill., catalogue #78501) is added. The cell layer is scraped into Eppendorf tubes and sonicated. The lysate is centrifuged at 5000×g at 5° C. for 10 minutes, and the supernatant assayed for alkaline phosphatase (ALP) by monitoring the hydrolysis of nitrophenol phosphate in alkaline buffer (Sigma-Aldrich, St. Louis Mo., catalog P5899) as described in Peel et al. J Craniofacial Surg. 2003; 14:284-291 or by using the Alkaline Phosphatase detection kit, Fluorescence (Sigma-Aldrich, catalogue #APF) according to manufacturer's instructions. To normalize the ALP activity the cellular protein content in each well is also assayed using the Coomasie (Bradford) Protein Assay (Pierce Biotechnology Inc., catalogue #23200). The normalized ALP activity for each sample is calculated by dividing the ALP activity per well by the protein content per well. An activity score is calculated by dividing the ALP activity for each sample by the mean ALP activity of the control and is compared to the score achieved by the positive BMP control.
# Preparation of test materials: PreScission protease was obtained from Amersham Biosciences (GE Healthcare, Buckinghamshire, U.K) and was prepared according to the manufacturer's instructions. Recombinant hBMP-2 and rhBMP-7 (both CHO cell produced) were obtained from R&D Systems. The rhBMP samples were resuspended in 4 mM HCl to a final concentration of 10 μg/ml. Bovine serum albumin (BSA) was not included so that the only substrate for the protease was BMP. The cleavage buffer was prepared (50 mM Tris-HCl, 150 mM NaCl, 1 mM EDTA, pH 7).
# Assessment of activity: Samples underwent digestion at room temperature for 6 hours. Reactions were stopped by freezing at −20° C. Digestion samples were diluted in alpha MEM+15% FBS and tested for BMP activity using the C2C12 assay described in Example 1.
molecule,measurement,setting,value
"N=C(N)NCCC[C@@H](N)C(=O)N[C@H](CCCNC(=N)N)C(=O)N[C@H](CCCNC(=N)N)C(=O)N[C@H](CCCNC(=N)N)C(=O)N[C@H](CCCNC(=N)N)C(=O)N[C@H](CCCNC(=N)N)C(=O)N[C@H](CCCNC(=N)N)C(=O)N[C@H](CCCNC(=N)N)C(=O)N[C@H](CCCNC(=N)N)C(N)=O [9DR, nona-D-arginine amide]",effect on cell viability,[1],did not affect cell viability
"N=C(N)NCCC[C@@H](N)C(=O)O [DR, D arginine]",mature hBMP-7 in medium versus medium only,[2],no difference
"rhBMP-7: recombinant human BMP-7, CHO cell produced, obtained from R&D Systems (protein) STGSKQRSQNRSKTPKNQEALRMANVAENSSSDQRQACKKHELYVSFRDLGWQDWIIAPEGYAAYYCEGECAFPLNSYMNATNHAIVQTLVHFINPETVPKPCCAPTQLNAISVLYFDDSSNVILKKYRNMVVRACGCH",ALP activity (U/μg protein) mean ± SD,"[3]; group 2: 20 μl rhBMP (10 μg/ml), no protease, no cleavage buffer (unincubated)",7.1 ± 0.5 U/μg protein
same,ALP activity (U/μg protein) mean ± SD,"[3]; group 3: 20 μl rhBMP + 15 μl PreScission protease + 165 μl cleavage buffer, room temperature 6 hours",2.9 ± 0.2 U/μg protein
same,ALP activity (U/μg protein) mean ± SD,"[3]; group 4: 20 μl rhBMP + 180 μl cleavage buffer alone, room temperature 6 hours",4.0 ± 0.3 U/μg protein
same,activity after PreScission digestion,[3]; room temperature for 6 hours,remained active
same,activity after PreScission digestion compared to control BMP incubated in cleavage buffer alone,[3]; room temperature for 6 hours,No loss of activity
